Experimental data as given in article PMC11677724, “Preclinical Study of a Dual-Target Molecular Probe Labeled with ^68Ga Targeting SSTR2 and FAP” (Pharmaceuticals, 2024).

What was measured:
[1] = Partition coefficient (log P), n-octanol/PBS; assay type: physicochemical; details: shake-flask n-octanol/PBS (0.1 mol/L, pH 7.4), 14.8 MBq in 100 µL, vortexed 2 min at room temperature, centrifuged 3000 rpm 5 min, γ-counter CPM; mean ± SD, repeated three times; read-out: Log p
Experimental: In a 15 mL centrifuge tube, 2.9 mL of PBS (0.1 mol/L, pH = 7.4) and 3 mL of n-octanol were added. [^68Ga]Ga-TATE-46, [^68Ga]Ga-DOTA-TATE, or [^68Ga]Ga-FAPI-46 (14.8 MBq, 100 µL) were added to each tube. The mixture was vortexed at room temperature for 2 min to ensure thorough blending, and then centrifuged at room temperature (effective centrifuge radius 12 cm, 3000 rpm) for 5 min. After allowing sufficient time for phase separation, three 500 µL samples were taken from each layer. The radioactivity of each sample was measured using a γ-counter (count per minute, CPM), and log p = log (n-octanol CPM/water CPM) was calculated. The experiment was repeated three times.

[2] = In vitro stability in physiological saline/PBS or FBS, radio-HPLC; assay type: in vitro ADME; details: 1.85 MBq in 5 µL, 37 °C, 2 h
Experimental: A measure of 5 µL of [^68Ga]Ga-TATE-46 (1.85 MBq) was added to 300 µL of PBS or FBS and incubated at 37 °C for 2 h. Subsequently, the radiochemical purity was determined using HPLC.

[3] = Pharmacokinetics, blood time-activity curves, two-compartment model; assay type: in vivo, BALB/c mice; details: female healthy BALB/c mice, n = 3 per group, 0.37 MBq tail vein, blood 2-120 min, γ-counter, two-compartment model (WinNonlin)
Experimental: Nine female healthy BALB/c mice were randomly divided into three groups (with three mice in each group) using a random number table. Each group was administered 100 µL of [^68Ga]Ga-TATE-46, [^68Ga]Ga-DOTA-TATE, or [^68Ga]Ga-FAPI-46 (0.37 MBq) via tail vein injection. Blood samples (5 µL × 3) were collected at 2, 5, 10, 15, 30, 60, 90, and 120 min post-injection via tail vein. The radioactivity in the blood was measured with a γ-counter and converted to blood radioactivity concentration (kBq/mL). The pharmacokinetic data (time–blood radioactivity concentration) were analyzed by using the two-compartment model in the pharmacokinetic software WinNonlin (Certara, Louis, MO, USA, 2018-06) to determine the distribution and clearance half-life parameters of the radiopharmaceuticals in the mice.

[4] = test system: NCI-H727 tumor-bearing mice; assay: Ex vivo biodistribution in NCI-H727 tumor-bearing mice; details: biodistribution in NCI-H727 tumor-bearing mice
Experimental: (§1) Female BALB/c nude mice were obtained from Charles River Laboratories (Beijing, China). […] Approximately 5 × 10^6 cells were implanted into the right shoulder of each mouse to establish an NCI-H727 tumor model and Mc38 tumor model. Once the tumor volume reached 200–300 mm^3, the mice were used for imaging or biodistribution studies. All animal experiments were carried out in accordance with the National Institutes of Health Guidelines for the Care and Use of Laboratory Animals and were approved by the Animal Protection and Utilization Committee of the General Hospital of the PLA (Approval No.: S2023-209-1).
The NCI-H727 tumor-bearing mice were randomly assigned to four groups (with three mice in each group) and were injected with [^68Ga]Ga-TATE-46 (1.48 MBq, 100 µL). The mice were put to death at 0.5, 1, 2, and 4 h post-injection (p.i.). The tissues and organs of concern were gathered, weighed, and measured for radioactivity using a γ-counter. Additionally, [^68Ga]Ga-DOTA-TATE and [^68Ga]Ga-FAPI-46 were used as control groups in the biodistribution study of the NCI-H727 tumor model at 1 h p.i. After performing time decay correction, the radiotracer uptake in each tissue and organ was calculated as %ID/g.

[5] = Micro PET imaging with ROI quantification, MC38 tumor-bearing mice; assay type: in vivo; details: female, BALB/c nude, mouse, iv, total radioactivity, 1 h p.i., 5.55–7.4 MBq tail vein, MC38 tumors (SSTR2/FAP, negative), read-out: uptake in MC38 tumors (ROI quantitative analysis of PET images)
Experimental: as §1
(§2) Each set of NCI-H727 tumor xenograft models (n = 3) was administered with [^68Ga]Ga-TATE-46, [^68Ga]Ga-DOTA-TATE, or [^68Ga]Ga-FAPI-46 (5.55–7.4 MBq, 150 µL/mouse) through the tail vein. Static PET scans were performed at 30 min, 1 h, 2 h, and 4 h after injection for 10 min each. In blocking studies, unlabeled precursors (FAPI-46, DOTA-TATE, FAPI-46 + DOTA-TATE, 10 mg/kg) were co-injected with [^68Ga]Ga-TATE-46. After image acquisition, the images were reconstructed using the three-dimensional ordered subset expectation maximization (3D-OSEM) algorithm and analyzed on the Recon/Avator-s-10 workstation. The percentage of injected dose per gram of tissue (%ID/g) was determined by delineating regions of interest.

[6] = test system: NCI-H727 tumor-bearing mice; assay: Micro PET imaging with ROI quantification and blocking, NCI-H727 tumor-bearing mice; assay type: in vivo, BALB/c nude mice
Experimental: as §1, §2

[7] = test system: MC38 cells (SSTR2/FAP, negative); assay: Cell uptake in MC38 cells (negative control); assay type: cell-based; details: 1.48×10^4 Bq/well, all time points, all p < 0.001
Experimental: The NCI-H727 and Mc38 cell lines were supplied by the Stem Cell Bank of the Chinese Academy of Sciences and were cultivated in Roswell Park Memorial Institute (RPMI-1640) medium with 10% (v/v) fetal bovine serum (FBS) at 37 °C with 5% CO2. All cells were cultured until they reached 80–90% confluence before undergoing trypsinization.
In blocking experiments, an excessive amount of unlabeled FAPI-46, DOTA-TATE, or FAPI-46 + DOTA-TATE (10 µg/well) was added as an inhibitor along with [^68Ga]Ga-TATE-46 to the cells. After 1 h, the cells were processed using the same method. Finally, the cell lysates were gathered, and the radioactivity was measured using a γ-counter. Mc38 cells were used as a negative control, with only [^68Ga]Ga-TATE-46 (1.48 × 10^4 Bq/well, 100 µL) added, and the rest of the procedure was followed as described above.

**Q.** What does the source list for `C[C@@H](O)[C@H](NC(=O)[C@@H]1CSSC[C@H](NC(=O)[C@@H](Cc2ccccc2)NC(=O)CCCCCNC(=O)CCCCCNC(=O)[C@H](Cc2ccccc2)NC(=O)C(CCC(=O)N[C@@H](Cc2ccccc2)C(=O)NCCCCCC(=O)NCCCCCC(=O)N2CCN(CCCN(C)c3ccc4nccc(C(=O)NCC(=O)N5CC(F)(F)C[C@H]5C#N)c4c3)CC2)NC(=O)CN2CCN(CC(=O)O)CCN(CC(=O)O)CCN(CC(=O)O)CC2)C(=O)N[C@@H](Cc2ccc(O)cc2)C(=O)N[C@H](Cc2c[nH]c3ccccc23)C(=O)N[C@@H](CCCCN)C(=O)N[C@@H]([C@@H](C)O)C(=O)N1)C(=O)O` (stereo partly shown) [[^68Ga]Ga-TATE-46, metal not drawn]?
**A.** logD [1]: -0.2 ± 0.05; In vitro stability in FBS (HPLC chromatogram) ([2]; 300 µL FBS): only one peak; In vitro stability in physiological saline (HPLC chromatogram) ([2]; physiological saline (method: 300 µL PBS)): only one peak; distribution half-life [3]: 1.79 min; elimination half-life [3]: 37.75 min; tumor/muscle ratio [4]: 3–4; tissue uptake at 1 h [5]: 2.05 ± 0.09 %ID/g; tumor uptake in NCI-H727 tumors (PET ROI) compared with [68Ga]Ga-FAPI-46 and [68Ga]Ga-DOTA-TATE ([6]; 5.55–7.4 MBq, 30 min-4 h p.i., n = 3, p < 0.001): significantly higher; tumor uptake (PET) on co-injection with blocking agents DOTA-TATE, FAPI-46, or DOTA-TATE + FAPI-46 ([6]; blockers 10 μg/g each, NCI-H727 tumors, 1 h p.i., all p < 0.001): significantly reduced; cellular uptake in MC38 cells compared to NCI-H727 cells [7]: significantly lower
